Measurements reported in US20240352438A1, “MEANS AND METHODS FOR DETOXIFYING OCHRATOXIN A” (DSM Austria GmbH, priority 2021, published 2024).

Experiment: OTA detoxification activity assay (specific activity, fluorescence reduction ex/em 390/450 nm)
Type: biochemical
Conditions: SEQ ID NO: 1 = 100%
Protocol: To determine the specific activity of recombinant target polypeptides produced e.g. as described in Example 2 above in units per liter (U/L), ochratoxin A (OTA) detoxification activity assays were performed. One unit is defined as the amount of enzyme necessary for degradation of 1 μmol or OTA in 1 min when using a starting OTA concentration of […].
OTA detoxification activity assays were set up in a final volume of the reaction mixture of […], containing the recombinant enzyme preparation (preferably diluted to yield a volumetric activity of 1-10 mU/L), and 200 ng/mL OTA in 100 mM sodium phosphate buffer.
Specific activities were determined at pH 6.0 and pH 7.5. As soon as all components of the reaction mixture were mixed, OTA degradation was followed at 37° C. on a fluorescence spectrophotometer (BioTek Synergy H1 MFD Multimode microplate reader) by following the reduction in fluorescence at ex/em 390 nm/450 nm. For work performed at pH 6.0 and 7.5, a 100 mM sodium phosphate buffer was used.
For calculation of the specific activity, the initial linear part of the recorded fluorescence reduction curve was used. In addition to the fluorescence-based method described above, OTA degradation was also determined by using the HPLC-MS method as described by Dellafiora et al. 2020, Toxins 12, 258, essentially confirming the fluorescence-based results. Genes encoding either of the indicated SEQ ID NOs are expressed as described herein and the specific activities for the obtained polypeptide preparation are exemplarily shown in Table 8. Analogously, enzymatic activities using either ochratoxin B, C or TA as substrate or can be found.

Molecule	Specific OTA detoxification activities in % compared to the enzyme of SEQ ID NO: 1, pH 6.0 [%]	Specific OTA detoxification activities in % compared to the enzyme of SEQ ID NO: 1, pH 7.5 [%]
249 (protein, exemplary polypeptide) MTTRTRILTAFLSLLAANACAADAAPAAPHTVVLRAARMFDGASGKLVDHPQLTIVGNKIVRIAQGDKAEVPAGAEVVDLGDATLLPGFIDAHVHLSGQSSDNWYGDFFDNMMRFPAEQALYGAYYARITLEAGFTSVRDVGSTDWVALGLRNAIDAGKVPGPRMLVSNYAVGSTGGHADQDPIPPHKLPLAGPLQGVCNGPEECRAAVRYQIKYGANVIKFMPSGGVLSLSDPVDAPELSQDEMNAVIGESHAWGRKVAAHAHGDKAAKMAVAAGVDSIEHGSFIEDDTLRAMKAKNVYLVPTISAIAHVEEKIGTFPPVIAEKGRAAAAHLRQTFRHAVQIGVPIALGTDAGVGAAGSNAREFRYMVENGLTPAQALLAGTANAARLLGTFDRVGTLEAGKLADVVAVPGNPIADITVTERPLFVMKDGVVVRRDAVR	21	26
250 (protein, exemplary polypeptide) MTTRTRILTAFLSLLAANACAADAAPAAPHTVVLRAARMFDGASGKLVDHPQLTIVGNKIVRIAQGDKAEVPAGAEVVDLGDATLLPGFIDAHVHLSGQSSDNWYGDFFDNMMRFPAEQALYGAYYARITLEAGFTSVRDVGSTDWVALGLRNAIDAGKVPGPRMLVSNYAVGSTGGHADQDPIPPHKLPLAGPLQGVCNGPEECRAAVRYQIKYGANVIKFMPSGGVLSLSDPVDAPELSQDEMNAVIGESHAWGRKVAAHAHGDKAAKMAVAAGVDSIEHGSFIEDDTLRAMKAKNVYLVPTISAIAHVEEKIGTFPPVIAEKGRAAAAHLRQTFRHAVQIGVPIALGTDAGVGAKGSNAREFRYMVENGLTPAQALLAGTANAARLLGTFDRVGTLEAGKLADVVAVPGNPIADITVTERPLFVMKDGVVVRRDAVR	17	21
265 (protein, exemplary polypeptide) MTTRTRILTAFLSLLAANACAADAAPAAPHTVVLRAARMFDGASGKLVDHPQLTIVGNKIVRIAQGDKAEVPAGAEVVDLGDATLLPGFIDAHVHLSGQSSDNWYPDFFDNMMRFPAEQALYGAYYARITLEAGFTSVRDVGSTDWVALGLRNAIDAGKVPGPRMLVSNYAVGSTGGHADQDPIPPHKLPLAGPLQGVCNGPEECRAAVRYQIKYGANVIKFMPSGGVLSLSDPVDAPELSQDEMNAVIGESHAWGRKVAAHAHGDKAAKMAVAAGVDSIEHGSFIEDDTLRAMKAKNVYLVPTISAIAHVEEKIGTFPPVIAEKGRAAAAHLRQTFRHAVQIGVPIALGTDAGVGAHGSNAREFRYMVENGLTPAQALLAGTANAARLLGTFDRVGTLEAGKLADVVAVPGNPIADITVTERPLFVMKDGVVVRRDAVR	20	11
257 (protein, exemplary polypeptide) MTTRTRILTAFLSLLAANACAADAAPAAPHTVVLRAARMFDGASGKLVDHPQLTIVGNKIVRIAQGDKAEVPAGAEVVDLGDATLLPGFIDAHVHLSGQSSDNWYGDFFDNMMRFPAEQALYGAYYARITLEAGFTSVRDVGSTDWVALGLRNAIDAGKVPGPRMLVSNYAVGSTGGHADQDPIPPHKLPLAGPLQGVCNGPEECRAAVRYQIKYGANVIKFMPSGGVLSLSDPVDAPELSQDEMNAVIGESHAWGRKVAAHAHGDKAAKMAVAAGVDSIEHGDFIEDDTLRAMKAKNVYLVPTISAIAHVEEKIGTFPPVIAEKGRASAAHLRQTFRHAVQIGVPIALGTDAGVGAHGSNAREFRYMVENGLTPAQALLAGTANAARLLGTFDRVGTLEAGKLADVVAVPGNPIADITVTERPLFVMKDGVVVRRDAVR	34	15
252 (protein, exemplary polypeptide) MTTRTRILTAFLSLLAANACAADAAPAAPHTVVLRAARMFDGASGKLVDHPQLTIVGNKIVRIAQGDKAEVPAGAEVVDLGDATLLPGFIDAHVHLSGQSSDNWYGDFFDNMMRFPAEQALYGAYYARITLEAGFTSVRDVGSTDWVALGLRNAIDAGKVPGPRMLVSNYAVGSTGGHADQDPIPPHKLPLAGPLQGVCNGPEECRAAVRYQIKYGANVIKFMPSGGVLSLSDPVDAPELSQDEMNAVIGESHAWGRKVAAHAHGDKAAKMAVAAGVDSIEHGSFIEDDTLRAMKAKNVYLVPTISAIAHVEEKIGTFPPVIAEKGRAAAAHLRQTFRHAVQIGVPIALGTDAGVGAHGSEAREFRYMVENGLTPAQALLAGTANAARLLGTFDRVGTLEAGKLADVVAVPGNPIADITVTERPLFVMKDGVVVRRDAVR	32	13
254 (protein, exemplary polypeptide) MTTRTRILTAFLSLLAANACAADAAPAAPHTVVLRAARMFDGASGKLVDHPQLTIVGNKIVRIAQGDKAEVPAGAEVVDLGDATLLPGFIDAHVHLSGQSSDNWYGDFFKNMMRFPAEQALYGAYYARITLEAGFTSVRDVGSTDWVALGLRNAIDAGKVPGPRMLVSNYAVGSTGGHADQDPIPPHDLPLAGPLQGVCNGPEECRAAVRYQIKYGANVIKFMPSGGVLSLSDPVDAPELSQDEMNAVIGESHAWGRKVAAHAHGDKAAKMAVAAGVDSIEHGSFIEDDTLRAMKAKNVYLVPTISAIAHVEEKIGTFPPVIAEKGRAAAAHLRQTFRHAVQIGVPIALGTDAGVGAHGSNAREFRYMVENGLTPAQALLAGTANAARLLGTFDRVGTLEAGKLADVVAVPGNPIADITVTERPLFVMKDGVVVRRDAVR	32	15
251 (protein, exemplary polypeptide) MTTRTRILTAFLSLLAANACAADAAPAAPHTVVLRAARMFDGASGKLVDHPQLTIVGNKIVRIAQGDKAEVPAGAEVVDLGDATLLPGFIDAHVHLSGQSSDNWYGDFFDNMMRFPAEQALYGAYYARITLEAGFTSVRDVGSTDWVALGLRNAIDAGKVPGPRMLVSNYAVGSTGGHADQDPIPPHKLPLAGPLQGVCNGPEECRAAVRYQIKYGANVIKFMPSGGVLSLSDPVDAPELSQDEMNAVIGESHAWGRKVAAHAHGDKAAKMAVAAGVDSIEHGSFIEDDTLRAMKAKNVYLVPTISAIAHVEEKIGTFPPVIAEKGRAAAAHLRQTFRHAVQIGVPIALGTDAGVGANGSNAREFRYMVENGLTPAQALLAGTANAARLLGTFDRVGTLEAGKLADVVAVPGNPIADITVTERPLFVMKDGVVVRRDAVR	53	33
258 (protein, exemplary polypeptide) MTTRTRILTAFLSLLAANACAADAAPAAPHTVVLRAARMFDGASGKLVDHPQLTIVGNKIVRIAQGDKAEVPAGAEVVDLGDATLLPGFIDAHVHLSGQSSDNWYGDFFDNMMRFPAEQALYGAYYARITLEAGFTSVRDVGSTDWVALGLRNAIDAGKVPGPRMLVSNYAVGSTGGHADQDPIPPHKLPLAGPLQGVCNGPEECRAAVRYQIKYGANVIKFMPSGGVLSLSDPVDAPELSQDEMNAVIGESHAWGRKVAAHAHGDKAAKMAVAAGVDSIEHGDFIEDDTLRAMKAKNVYLVPTISAIAHVEEKIGTFPPVIAEKGRATAAHLRQTFRHAVQIGVPIALGTDAGVGAHGSNAREFRYMVENGLTPAQALLAGTANAARLLGTFDRVGTLEAGKLADVVAVPGNPIADITVTERPLFVMKDGVVVRRDAVR	29	25
263 (protein, exemplary polypeptide) MTTRTRILTAFLSLLAANACAADAAPAAPHTVVLRAARMFDGASGKLVDHPQLTIVGNKIVRIAQGDKAEVPAGAEVVDLGDATLLPGFIDAHVHLSGQSSDNWNGDFFDNMMRFPAEQALYGAYYARITLEAGFTSVRDVGSTDWVALGLRNAIDAGKVPGPRMLVSNYAVGSTGGHADQDPIPPHKLPLAGPLQGVCNGPEECRAAVRYQIKYGANVIKFMPSGGVLSLSDPVDAPELSQDEMNAVIGESHAWGRKVAAHAHGDKAAKMAVAAGVDSIEHGSFIEDDTLRAMKAKNVYLVPTISAIAHVEEKIGTFPPVIAEKGRAAAAHLRQTFRHAVQIGVPIALGTDAGVGAHGSNAREFRYMVENGLTPAQALLAGTANAARLLGTFDRVGTLEAGKLADVVAVPGNPIADITVTERPLFVMKDGVVVRRDAVR	19	11
264 (protein, exemplary polypeptide) MTTRTRILTAFLSLLAANACAADAAPAAPHTVVLRAARMFDGASGKLVDHPQLTIVGNKIVRIAQGDKAEVPAGAEVVDLGDATLLPGFIDAHVHLSGQSSDNWRGDFFDNMMRFPAEQALYGAYYARITLEAGFTSVRDVGSTDWVALGLRNAIDAGKVPGPRMLVSNYAVGSTGGHADQDPIPPHKLPLAGPLQGVCNGPEECRAAVRYQIKYGANVIKFMPSGGVLSLSDPVDAPELSQDEMNAVIGESHAWGRKVAAHAHGDKAAKMAVAAGVDSIEHGSFIEDDTLRAMKAKNVYLVPTISAIAHVEEKIGTFPPVIAEKGRAAAAHLRQTFRHAVQIGVPIALGTDAGVGAHGSNAREFRYMVENGLTPAQALLAGTANAARLLGTFDRVGTLEAGKLADVVAVPGNPIADITVTERPLFVMKDGVVVRRDAVR	46	44
